According to the nanobody polyreactivity screen of Harvey et al. (2022):

Experiment: yeast display, Sf9 membrane polyspecificity reagent, FACS + sequencing; frameworks hold sequencing errors
How it was run: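 A nanobody's polyreactivity label depends on the gate it was sorted from. Yeast display cells were stained with 10% biotinylated, detergent-solubilized Sf9 membrane reagent for 1 hour at 4 °C, enriched on streptavidin microbeads and sorted by FACS. The low and high (top ~1%) gates were set on anti-HA fluorescence for expression and streptavidin fluorescence for reagent binding.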

Sequence | polyreactivity (PSR sort gate)
QVQLVESGGGLVQAGGSLRLSCAASGSTSQINAMGWYRQAPGKERELVAAITWSGDSTYYADSVKGRFTISRDNAKNTVYLQMNSLKPEDTAVYYCAAVSRYFSTYLYDYWGQGTQVTVSS | low polyreactivity
QVQLVESGGGLVQAGGSLRLSCAASGSTSRGYAMAWYRQAPGKERELFASITLSGGNTYYADSVKGRFTISRDNAKNTVYLQMNSLKPEDTAVYYCAADDRGSSYGHFTVEYGYWGQGTQVTVSS | low polyreactivity
QVQLVESGGGLVQAGGSLRLSCAASGSTSRTYAMGWYRQAPAKERELVAASSSSGGRTYYADSVKGRFTISRDNAKNTVYLQMNSMKPEDTAVYYCNARTYSYRGYNYWGQGTQVTVSS | high polyreactivity
QVQLVESGGGLVQAGGSLRLSCAASGSTSSNNAMGWYRQAPGKERELVADISTNGDSTSYADSVKGRFTISRDNAKNTVYLQMNSLKPEDTAVYYCAASTYVTYWEYDFWGQGTQVTVSS | low polyreactivity
QVQLVESGGGLVQAGGSLRLSCAASGSTSTLYAMGWYRQAPGKERELVAAISKSGGRTYYADSVKGRFTISRDNAKNTVYLQMNSLKPEDTAVYYCNTVPGRYRTFDYWGQGTQVTVSS | high polyreactivity
QVQLVESGGGLVQAGGSLRLSCAASGSTSTRNAMGWYRPAPGKERELVAAITSGGNTYYADSVKGRFTISRDNAKNTVYLQMNSLKPEDTAVYYCAAASPGPWRYDYWGQGTQVTVSS | high polyreactivity
QVQLVESGGGLVQAGGSLRLSCAASGSTSVPYAMGWYRQAPGKERELVAAITIGGSTNYADSVKGRFTISRDNAKNTVYLQMNSLKPEDTAVYYCNAVLTQYWKLVRYYGVDYWGQGTQVTVSS | low polyreactivity
QVQLVESGGGLVQAGGSLRLSCAASGSTSVQYAMGWYRQAPVKERELVAAIDRSGGSTSYADSVKGRFTISRDNANNTVYLQMNSLKPEDTAVYYCNADPVRSTYSYDYWGQGTQVTVSS | low polyreactivity
QVQLVESGGGLVQAGGSLRLSCAASGSTSVVNTMGWYRQAPGKERELVAAISWSGGSTYYADSVKGRFTISRDNAKNTVYLQMNSLKPEDTAVYYCNAQRNFKSITEYDYWGQGTQVTVSS | high polyreactivity
QVQLVESGGGLVQAGGSLRLSCAASGSTSYLYPMGWDRQAPGKERELVAAISWNGGSTYYADSVKGRFTISLDNAKNTVYLQMNSLKPEDTAVYYCAASVHATSFSGGRHWFKLYYWGQGTQVTVSS | high polyreactivity
QVQLVESGGGLVQAGGSLRLSCAASGSTSYNAMGWYRQAPGKERELVAAISDGGGSTYYADSVKGRFTISRDNAKNTVYLQMISLKPEDTAVYYCAADTITGDGYWAQGTQVTVSS | low polyreactivity
QVQLVESGGGLVQAGGSLRLSCAASGSTSYNYVMGWYRQAPGKERELVAAISFTDGTTYYADSVKGRFTISRDNAKNTVYLQMNSLKPEDTAVYYCAAGYTGYTYTEMDYWGQVTQVTVSS | low polyreactivity
QVQLVESGGGLVQAGGSLRLSCAASGSTSYSYMGWYRQAPGKERELVAAIDESGGSTYYADSVKGRFTISRDNAKNTVYLQMNSLKPEDTAVYYCNRRYGRSYRWGYGYWGQGTQVTVSS | low polyreactivity
QVQLVESGGGLVQAGGSLRLSCAASGSTSYVYAMGWYRQAPGKERELVAAISGSGGRTYYADSVKGRFTISRDNAKNTVYLQMNSLKPEDTAVYYCNALPRPSYPFDYWGQGTQVTVSS | high polyreactivity
QVQLVESGGGLVQAGGSLRLSCAASGSTVEYNAMGGYRPATGKERELVAAITSGGSTTYADSVKGRFTISRDNAKNTVYLQMNSLKPEDTAVYYCAAVGRRVSAWYYYWGQGTQVTVSS | high polyreactivity
QVQLVESGGGLVQAGGSLRLSCAASGSTVNKYAMGWYRHAPGKERELVAAITTSGGRTYYADSVKGRFTISRDNAKNTVYLQMNSLKPEDTAVYYCNARIRRNYAYPKGESWGQGTQVTVSS | high polyreactivity

Sequence | polyreactivity (PSR sort gate)
QVQLVESGGGLVQAGGSLRLSCAASGSTVRRYAMGWYRQAPGKERELVATISSGGRTNYADSVKGRFTISRDNAKNTVYLEMNSLKPEDTGVYYCAARPYFYERSAGYYWGQGTQVTVSS | high polyreactivity
QVQLVESGGGLVQAGGSLRLSCAASGSTVRYNAMGWYRQARGIERELVAAISYGSSTNYADSVKGRFTISRDNAKNTVFLQMNSLKPEDTAVYYCAAQPGYYDDFYYWGHGTQVTVSS | low polyreactivity
QVQLVESGGGLVQAGGSLRLSCAASGSTVYASVMGWSRQAPGKARELVAAITSAGSTDYADSVKGRFTISRDNAKNTVYLQMNSRKPEDTAVYYCAADAYTDSPYYKYDYWGQGTQVTVSS | low polyreactivity
QVQLVESGGGLVQAGGSLRLSCAASGSTWVYAMGWYRQAPGKERELFAAITVSGGSTYYADSVKGRFTISRDNAKNTVYLQMNSQKPEDPAVYYCAAYDSYRKFKYLGQGTQVTVSS | high polyreactivity
QVQLVESGGGLVQAGGSLRLSCAASGSTYAAKTMGWYRQAPGKERELVAAITVRGGSTYYADSVKGRFTISRDNAKNTVYLQMNSLKPEDTAVYYCATRHPARRDYWGQGTQVTVSS | low polyreactivity
QVQLVESGGGLVQAGGSLRLSCAASGSTYAVNVMGWYRQAPGKERELVATITYRDGRTYYADSVKGRFTISRDNAKNTVYLQMNSLKPEDTAVYYCAADAYRAQGDYWGQGTQVTVSS | low polyreactivity
QVQLVESGGGLVQAGGSLRLSCAASGSTYEIYAMGWYRQAPGKDRELVAAISSGGSTNYADSVKGRFTISRDNAKNTVYLQMNSLKPEDTAVYYCVYAIQFDYWGQGTQVTVSS | low polyreactivity
QVQLVESGGGLVQAGGSLRLSCAASGSTYENAMGWYRQAPGKERELVAVISRSGGSTYYADSVKGRFTISRDNAKNTVYLQMNSLNPEDTAVYYCATVYSAWSWVHGYYVAMDYWGQGTQVTVSS | high polyreactivity
QVQLVESGGGLVQAGGSLRLSCAASGSTYGRNARGWYRQAPGKERELVAAISSGGRTYYADSVKGRFTISRDNAKNTVYLQMNSLKPEDTAVYYCARDDYGTLVQLYGRGFNYWGQGTQVTVSS | low polyreactivity
QVQLVESGGGLVQAGGSLRLSCAASGSTYNAMGWYRQAPGKEREFVAAISWGGGSTYYADSVKGRFTISRDNAKNTVYLQMNSLKPEDTAVYYCAKTPNYRIRHDYWGQGTQVTVSS | low polyreactivity
QVQLVESGGGLVQAGGSLRLSCAASGSTYPSYAMGWYRQAPGKERELVAAINSGGSTNYADSVKGRFTISRDNAKNTVYLQMNSLKPEDTAVYYCAASVYGQHAGPGRWYTFYYWGQGTQVTVSS | low polyreactivity
QVQLVESGGGLVQAGGSLRLSCAASGSTYVSNAMGWYRQAPGKERELVAAISKSGGSTYYGDSVKGRFSISRDTAKNTVYLQMNSLKPEDTAVYYCAASPARYWYGGKEYDYWGQGTQVTVSS | high polyreactivity
QVQLVESGGGLVQAGGSLRLSCAASGSTYYNAMGWYRQAPRKERELVAAIRFRSGSTYYADSVKGRFTISRDNAKITVYFQMNSLKPEDTAVYYCAADNKRSWRYAYNYWGQGTQVTVSS | high polyreactivity
QVQLVESGGGLVQAGGSLRLSCAASGSTYYRYTMGSYRQAPGKERELLAAITSGGGTDYADSVKGRFTISRDNAKNTVYLQMNSLKPEDTAVYYCAAEGSWYSYPDYDYWGQGTQVTVSS | low polyreactivity
QVQLVESGGGLVQAGGSLRLSCAASGSTYYTYAMGWYRQAPGKERELVAAITYSDGDTYYADSVKGRFTISRDNAKHTVYLQMNSLKPEDTAVYYCAADYQGQPGTGNLEYWGQGTQVTVSS | low polyreactivity
QVQLVESGGGLVQAGGSLRLSCAASGSTYYYNAMGWYRQAPGKERELVAAIRTSGGRTYYADSVKGRFTISRDNAKNTVFLQMMSLKPEDTAVYFCADDGTDVHYTYDYWGQGTLVTVSS | low polyreactivity
